From the DeepSol protein solubility set come the findings set out here.

The nature of this series: soluble on expression in E. coli; label from the status in PepcDB or PDB records.
For the sequence “MRSIYLCRHGESELNLRGRIGGDSGLSARGKQYAYALANFIRSQGISSLKVWTSHMKRTIQTAEALGVPYEQWKALNEIDAGVCEEMTYEEIQEHYPEEFALRDQDKYRYRYPKGESYEDLVQRLEPVIMELERQENVLVICHQAVMRCLLAYFLDKSSDELPYLKCPLHTVLKLTPVAYGCRVESIYLNV”, the “soluble on expression in E. coli” value is reported as “soluble”.

For “MAHHHHHHMMPRSENQKEEEEWELHPLFLSKIPNKKDIDKNPALSALITLINEEEEKEVFSYEPRRKNLKKKITEKGQIIYKKDRRNLYEPYQQNKNDKINYFEKKNFGGNADISKEEEVLDVEMDEEGTTVTTAEQGGDHSSQNVSNNQEATDQTSIGEVLVCLSMMNLKQ”, the “soluble on expression in E. coli” value was “soluble”.

On to “MPKKTFENLEDSHGKDVNIPVELPKRKREVTPENLPSTSSTAPTQKRKSLGYSGRTEEPKNIHKTFISPFSTSVSPSKQGLRRRKKALPAIEPPVSVEEASPLRFVNIDVFSRRMASESSDHDAMIAKLLSRKFSIPMEGYMLSGRSLGLGGNRRKCALFDPYHEGALILYAPEHLSEHAQLKEDKDRKVHVVADPVVGKILRPHQRDGVKFMWDCVTGINIPEFHGCIMADEMGLGKTLQCISLLWTLLRQSPDACPTVSKSIIVCPSSLVKNWDKEIKKWLGTRLNAMPVDSGKREQIIACLNSFMADSKMRCAIPVLIISYETFRLYANILHSGDVGIVICDEGHRLKNSENLTYQALSGLKCARRVLISGTPIQNDLLEYFSLVNFVNPGLLGTASEFRKKFENAILKGRDADASSEDQKKGEEKTKEMISLVEKCIIRRTSALLTKYLPVKYEHIICCKNSTLQETLYNKLIECEKQNRIVEKDKGATASALSFITHLKKLCNHPYLVYDEFQKPDNRFRNKCLSIFPESFNPKSFDPSFSGKMKVLDYILAVTRKTTDDKFVLVSNYTQTIDQFMELCKLRGYDFVRLDGSMSIKQRSKIVDTFNDPASTIFCFLLSSKAGGCGLNLIGANRLVMFDPDWNPANDDQAMARVWRDGQKKMCFIYRLLATGSIEEKMFQRQTHKKALSSCVVDAGEDVARHFSSEQLRELFKLESTVASDTHEKLKCKRCIQGVESVDPPTNADCASDLSNWFHSQKSARKVADNVLRAVFECGSISFVFHQKSHNVEVKKVQEKVEEVDEDYVPSEAEENDD”, for which the “soluble on expression in E. coli” value was “soluble”.

For “MGSDKIHHHHHHVFIGIETTDPEGLKETGKVQNLREDPLTAVRRIYAHGIDVLGGFIIGFDHDTMATFEHQYRFITDAGIQSAMIGLLMALPRTPLHERMQREGRLLPLDGHADNTCLTTNIAPRSMNIDAMVAAYQELYRRLLTGPEIGRRIRNKMKYLQAPVYGSGYSMGQRAGILARLMVRGIGAGGLSTLVAFLRSFPFLTPSRIPMVISDWIIGLSMKAFAETSLLGRSTQGLNNAATGISTGLRDP”, the “soluble on expression in E. coli” value was “not soluble”.

“MGSDKIHHHHHHMQGRTPLLETLRELECEIRLLTVYARECCGCYEILRRKLDRLSGLIGEDCSRAQWQADSDDPALQALGLRLRDAAVQALCELEKHLCQGVLHEPGEMGRYLGSLLESIRGELDSAGIYAYARVLFVGSGALPTSALVLAREVGAHLCCLDIDEEALGCAREIARCQGLEARMQFSSLPPAELAFSRDATHFLIASLVQQKSAVLAQIRQVMRADAKVLLRHGSGIKGLFNYPVEPAELDGWRVCAERVSQPLYDTLILEKAGR”: the “soluble on expression in E. coli” value was “not soluble”.

Turning to “MGASMTGGQQMGAPITAYAQQTRGLLGCIITSLTGRDKNQVEGEVQIVSTATQTFLATCINGVCWTVYHGAGTRTIASPKGPVIQMYTNVDQDLVGWPAPQGSRSLTPCTCGSSDLYLVTRHADVIPVRRRGDSRGSLLSPRPISYLKGSSGGPLLCPAGHAVGLFRAAVCTRGVAKAVDFIPVENLETTMRSGSHHHHHH”, the “soluble on expression in E. coli” value is given as “soluble”.

In the case of “MGHHHHHHSHMGVTCVSQMPVAEGKSVQQTVELLTRKLEMLGAEKQGTFCVDCETYHTAASTLGSQGQTGKLMYVMHNSEYPLSCFALFENGPCLIADTNFDVLMVKLKGFFQSAKASKIETRGTRYQYCDFLVKVGTVTMGPSARGISVEVEYGPCVVASDCWSLLLEFLQSFLGSHTPGAPAVFGNRHDAVYGPADTMVQYMELFNKIRKQQQVPVAGIR”, the “soluble on expression in E. coli” value is “soluble”.

Turning to “IPVDLTWDLEAIFSTDEEWEKEFNEVKGLIPSLVQFKGKLSQSAEILYAALQQQDEITERLGRLYTYAHMRYDQDTTNSFYQGLNDRAQTLASQVGQAASFVVPELMSIEKEKIDTFLNEHEPLTLYRHMLDELNKQRPHVLSEAEESILAQASEVTSAPSNTFGMLNNADMTFPTIVNENGEEVEVTHGRYL”, the “soluble on expression in E. coli” value is recorded as “soluble”.

“MSLSPAELHADSIVIDGLIIAKWNRELFEDMRKGGLTAANCTVSVWEGFQATVNNIAASNKLIRDNSDLVIPVRSTADIRKAKEQGKTGILYGFQNAHAFEDQIGYVEVFKQLGVGIVQMCYNTQNLVGTGCYERDGGLSGFGREIVAEMNRVGIMCDLSHVGSKTSEEVILESKKPVCYSHCLPSGLKEHPRNKSDEELKFIADHGGFVGVTMFAPFLKKGIDSTIDDYAEAIEYVMNIVGEDAIGIGTDFTQGHGHDFFEWLTHDKGYARRLTNFGKIVNPLGIRTVGEFPNLTETLLERGMPERVVRKVMGENWVRVLRDVEGHHHHHH”: the “soluble on expression in E. coli” value was “not soluble”.

On to “MGSDKIHHHHHHMYYGSIITVLSSDKNKLTGIAEKLGKLHETAKTKIYYRKKGEYIRSILLTTEYPEKIIDLAEALSLSSTAILYIPETLTWMDGELALLIDSLNTHNKIVISNLDQGKINNILGSLSSFTKFDLYNDIPDLSETEEEDKGIVYVDRVFTVKGVGTVVTGFSFTNVEVHEKLVALPYNKEVEIKSIQVLDEDQKSVSTGVRIGFALKNVKEEEIEDLLYLVKPNVKVVKEIEGQITNYKWSTINQGQNHIIVKGHGIAANIKVDNQKAKIMSSVPIPIVDNRILVLNVNVRQGKPRVAGYISL”, for which the “soluble on expression in E. coli” value is “not soluble”.

“MGSDKIHHHHHHMRKNRITEMLATASTIVLDGALATELEARGCDLTDPLWSAKVLVENPALIYQVHFDYFKAGAQCAITASYQATPQGFEARGYSEAESLALIAKSVQLAAQARDDYRRDNTQAGTLLVAGSVGPYGAYLADGSEYRGDYQLPQADMMAFHRPRIAALHEAGADLLACETLPSFAEIEALIALLAEFPQAQAWFSFTLRDSEHLSDGTPLRTVLERVNACSQVVAVGLNCIALEKVTPALMHLSSLTDLPLVVYPNSGEQYDAVTKTWSSAHDTACSLTAYLPEWQTAGARLIGGCCRTTPADIAGIARCCQQ”: the “soluble on expression in E. coli” value is recorded as “not soluble”.

Take “MAHHHHHHMECYDNTKQKDLQEEHDVVRNFRRYYFQEKEEMHIAAIKSISDVLKNSISETNFELFINMNEAKCKLNNFINNNQTQQDIISVPHSKRMTIYPIISSCDIYHHFVVKKYTHNENNFHVLKNVIENNADEFSASLQKSLETIGSSSNIMFLNKHTTILTHSNSDCVKSLIMDVVKNQNKQVSIYFTCTSQVNLNYEEKEKKFDENFLEELNKENINITKIDLTQVKDIINKIDFVLIGSEIVTDNGGIINKKGIKLISELCLLYKKPFYVTCQAYKFLKIDKNKCSKDFYTFCTQTVTNNFNNIYEFVSPDFITLFYTDIGIFPPSNISYELSKLYINDAFYF”: the “soluble on expression in E. coli” value is recorded as “soluble”.

For the sequence “MTELKLIHIFTDGSCLGNPGPGGYGIVMKYKGHTKEMSGGFSLTTNNRMELLAPIVALEALKEPCKIILTSDSQYVRQGIMTWIHGWKKNGWMTSNGTPVKNVDLWKRLDKAAQLHQIDWRWVKGHAGHAENERCHQLARAAAEANPTQIDTGYQAES”, the “soluble on expression in E. coli” value is listed as “soluble”.

Take “GPGSMVVASCPGKVLILGGYLIVEEPNVGISVGTTARFVTRVASWKKCSDGKCRVHIVSSQFNKEFTFECAAEEDSDSTIKIVQLEGAPSPFLFYGILYSVAGALLFGGDIFRDVTLELLADNDFYSQRNYLESQGKPVTAANLRLIPRYTPLLGEVSKTGLGSSAAMTTSVVACLLQLYVFDSKKNNATESVERAPELPLRLEDVTEFIHRISQVAHCVAQGKVGSGFDVYTATFGTCVYRRFSARVLEKLVKGNEPPKRVTIPLLRECVETDEVWVQRIPFRLPTGLQLLLGDVHKGGTETPGMVSKVMSWRRSVTTDPNSLWERLRMSNEKYVEALQGLIKQSQEAPVAYTEAVKNLKSVVLAKHNPSTEAERLWVEAASVASTSRRYLREMGEAAQVQIEPPELTSLLDATCSIPGVFAVGCPGAGGYDAVFALVLGEEVCSAVERFWECYNDLQVCPLLVRGDANGLVLD”: the “soluble on expression in E. coli” value is “not soluble”.
